What was measured:
Test in all cases: EMSA; little to no detectable; EMSA: PBS pH 7.4 (or KH2PO4/10 mM MgCl2 pH 6.0), 3.6 or 5 uM protein, 25 uM nt DNA, 37 C 15 min per strand, 0.8% agarose 1x TBE; cryo-EM: 20 mM KH2PO4 (Results: 10 mM), 10 mM MgCl2 pH 6.0, 37 C; native MS: 100 mM ammonium acetate pH 7, 37 C
Conditions in all cases: protein: recombinant, tags: N-terminal 6His vector tag (20 aa) retained, chain copies: 10
LiRecT K111A/K215A = target: T1, LiRecT K111A/K215A (Listeria innocua CLIP 11262, UniProt Q92FL9 1-271, K111A;K215A)
T1 sequence: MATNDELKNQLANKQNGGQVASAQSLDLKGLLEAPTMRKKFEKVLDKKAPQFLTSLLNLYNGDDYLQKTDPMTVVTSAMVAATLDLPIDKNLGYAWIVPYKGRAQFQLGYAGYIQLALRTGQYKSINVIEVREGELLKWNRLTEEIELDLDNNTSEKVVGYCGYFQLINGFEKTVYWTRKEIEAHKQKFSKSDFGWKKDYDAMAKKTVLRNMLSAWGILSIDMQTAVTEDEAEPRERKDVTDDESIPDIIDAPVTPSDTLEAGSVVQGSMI

LiRecT R210A/K215A = target: T2, LiRecT R210A/K215A (Listeria innocua CLIP 11262, UniProt Q92FL9 1-271, R210A;K215A)
T2 sequence: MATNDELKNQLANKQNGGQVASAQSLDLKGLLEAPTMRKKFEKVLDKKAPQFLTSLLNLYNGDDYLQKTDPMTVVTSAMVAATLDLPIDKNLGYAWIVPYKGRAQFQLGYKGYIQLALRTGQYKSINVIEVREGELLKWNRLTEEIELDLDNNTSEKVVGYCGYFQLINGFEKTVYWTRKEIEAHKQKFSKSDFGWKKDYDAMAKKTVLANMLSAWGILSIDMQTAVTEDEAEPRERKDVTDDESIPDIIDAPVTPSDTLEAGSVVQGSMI

LiRecT K206E = target: T3, LiRecT K206E (Listeria innocua CLIP 11262, UniProt Q92FL9 1-271, K206E)
T3 sequence: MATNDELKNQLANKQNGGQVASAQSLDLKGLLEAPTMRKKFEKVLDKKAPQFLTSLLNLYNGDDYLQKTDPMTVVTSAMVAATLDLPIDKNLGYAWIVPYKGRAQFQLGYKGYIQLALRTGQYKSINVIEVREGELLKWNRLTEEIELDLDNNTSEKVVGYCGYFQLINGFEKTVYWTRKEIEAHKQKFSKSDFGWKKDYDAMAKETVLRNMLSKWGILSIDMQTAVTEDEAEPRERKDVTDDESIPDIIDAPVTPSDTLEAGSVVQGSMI

LiRecT K206A/R210A = target: T4, LiRecT K206A/R210A (Listeria innocua CLIP 11262, UniProt Q92FL9 1-271, K206A;R210A)
T4 sequence: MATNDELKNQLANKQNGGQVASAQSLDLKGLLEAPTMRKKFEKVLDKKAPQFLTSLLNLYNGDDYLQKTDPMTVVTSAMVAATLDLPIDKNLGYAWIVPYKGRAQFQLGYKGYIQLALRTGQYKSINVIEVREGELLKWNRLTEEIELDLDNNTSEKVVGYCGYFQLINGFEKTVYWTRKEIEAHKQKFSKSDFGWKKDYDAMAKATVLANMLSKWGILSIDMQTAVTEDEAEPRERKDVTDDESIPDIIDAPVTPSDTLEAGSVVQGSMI

LiRecT K206A/K215A = target: T5, LiRecT K206A/K215A (Listeria innocua CLIP 11262, UniProt Q92FL9 1-271, K206A;K215A)
T5 sequence: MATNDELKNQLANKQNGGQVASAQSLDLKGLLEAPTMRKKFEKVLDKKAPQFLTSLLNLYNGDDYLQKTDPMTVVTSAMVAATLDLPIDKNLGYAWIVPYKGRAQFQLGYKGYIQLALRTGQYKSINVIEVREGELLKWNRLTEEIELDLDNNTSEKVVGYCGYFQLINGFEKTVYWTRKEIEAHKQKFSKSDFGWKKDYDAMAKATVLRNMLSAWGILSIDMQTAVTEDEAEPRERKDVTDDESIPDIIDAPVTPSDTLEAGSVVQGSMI

[1] = label: 5'-Cy3;5'-Cy5, 49 bp, 1 nt 5' overhang at each end

Measured: binding result

CCATCCGCAAAAATCGAGCTATGCAGGGCGATTCTGCTCTAAGCCATCCG (ssDNA) [Cy5-50mer]
no binding: LiRecT K111A/K215A; label: 5'-Cy5, single strand | LiRecT R210A/K215A; label: 5'-Cy5, single strand | LiRecT K206E; label: 5'-Cy5, single strand | LiRecT K206A/R210A; label: 5'-Cy5, single strand | LiRecT K206A/K215A; label: 5'-Cy5, single strand

B1: 50-mer duplex intermediate (sequential addition) (dsDNA)
DNA 1: GCGGATGGCTTAGAGCAGAATCGCCCTGCATAGCTCGATTTTTGCGGATG
DNA 2: CCATCCGCAAAAATCGAGCTATGCAGGGCGATTCTGCTCTAAGCCATCCG
no binding: LiRecT K111A/K215A; [1] | LiRecT R210A/K215A; [1] | LiRecT K206E; [1] | LiRecT K206A/R210A; [1] | LiRecT K206A/K215A; [1]

GCGGATGGCTTAGAGCAGAATCGCCCTGCATAGCTCGATTTTTGCGGATG (ssDNA) [Cy3-50mer]
no binding: LiRecT K111A/K215A; label: 5'-Cy3, single strand | LiRecT R210A/K215A; label: 5'-Cy3, single strand | LiRecT K206E; label: 5'-Cy3, single strand | LiRecT K206A/R210A; label: 5'-Cy3, single strand | LiRecT K206A/K215A; label: 5'-Cy3, single strand
